Source: patent publication US20250295792A1, “POLYETHYLENE GLYCOL-MODIFIED FORM OF KININ OR DERIVATIVE THEREOF AND PHARMACEUTICAL USE THEREOF” (ZonHon Biopharma Institute, Inc., priority 2022, published 2025)
Where no end group is shown, it is not given here. [ ]: non-standard residue; d: D form. 2Thi = N[C@@H](Cc1cccs1)C(=O)O

molecular target: B2 receptor; experiment: cell-based or functional assay
Sequence (P30411 whole entry): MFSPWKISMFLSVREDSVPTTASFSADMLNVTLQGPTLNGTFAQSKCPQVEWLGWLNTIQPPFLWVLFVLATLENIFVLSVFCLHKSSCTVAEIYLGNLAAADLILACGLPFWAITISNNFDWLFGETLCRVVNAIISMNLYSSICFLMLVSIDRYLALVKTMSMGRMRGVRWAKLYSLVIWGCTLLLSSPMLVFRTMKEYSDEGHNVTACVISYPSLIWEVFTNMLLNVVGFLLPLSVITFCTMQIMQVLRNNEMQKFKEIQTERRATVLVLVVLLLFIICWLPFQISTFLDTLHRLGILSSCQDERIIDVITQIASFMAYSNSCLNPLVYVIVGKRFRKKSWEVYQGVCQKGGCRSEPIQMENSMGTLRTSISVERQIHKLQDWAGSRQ

Relative affinity activity (B2-NFAT-CHO-K1 luciferase reporter gene assay, from EC50)	Binder
120%	CRRRPPG[2Thi]SPFR [Lys-BKm16]
125%	CRPPG[2Thi]SPFR [Lys-BKm15]
115%	CRRPPG[2Thi]SPFR [Lys-BKm13]

The remaining lines, values behind:

Binder	Relative affinity activity (B2-NFAT-CHO-K1 luciferase reporter gene assay, from EC50)
KRPPGXSPF ({THI} (β-2-thiophenylalanine) at position 6: KRPPG{THI}SPF) [Lys-BKm05]	< 10%
RPPG[2Thi]SPFR [Lys-BKm02]	100%
[2Thi]SPFR [Lys-BKm09]	0%
SPFR [Lys-BKm10]	0%
PG[2Thi]SPFR [Lys-BKm08]	< 10%
